Positions count from the first letter of the chain named.
How the values were obtained:
Experiment in all cases: cAMP activity assay (pCRE β-galactosidase reporter), transfected HEK293T cells
Format in all cases: cell-based
RXFP1 A55S = biological target: T1, RXFP1 A55S (Homo sapiens, UniProt Q9HBX9, A77S); conditions: construct A55S, ±s.e.m.
T1 construct: cells expressing full-length RXFP1 and mutants; expressed in transfected cells; host or cells: HEK293T
T1 sequence (Q9HBX9 23-757 A77S limits assumed): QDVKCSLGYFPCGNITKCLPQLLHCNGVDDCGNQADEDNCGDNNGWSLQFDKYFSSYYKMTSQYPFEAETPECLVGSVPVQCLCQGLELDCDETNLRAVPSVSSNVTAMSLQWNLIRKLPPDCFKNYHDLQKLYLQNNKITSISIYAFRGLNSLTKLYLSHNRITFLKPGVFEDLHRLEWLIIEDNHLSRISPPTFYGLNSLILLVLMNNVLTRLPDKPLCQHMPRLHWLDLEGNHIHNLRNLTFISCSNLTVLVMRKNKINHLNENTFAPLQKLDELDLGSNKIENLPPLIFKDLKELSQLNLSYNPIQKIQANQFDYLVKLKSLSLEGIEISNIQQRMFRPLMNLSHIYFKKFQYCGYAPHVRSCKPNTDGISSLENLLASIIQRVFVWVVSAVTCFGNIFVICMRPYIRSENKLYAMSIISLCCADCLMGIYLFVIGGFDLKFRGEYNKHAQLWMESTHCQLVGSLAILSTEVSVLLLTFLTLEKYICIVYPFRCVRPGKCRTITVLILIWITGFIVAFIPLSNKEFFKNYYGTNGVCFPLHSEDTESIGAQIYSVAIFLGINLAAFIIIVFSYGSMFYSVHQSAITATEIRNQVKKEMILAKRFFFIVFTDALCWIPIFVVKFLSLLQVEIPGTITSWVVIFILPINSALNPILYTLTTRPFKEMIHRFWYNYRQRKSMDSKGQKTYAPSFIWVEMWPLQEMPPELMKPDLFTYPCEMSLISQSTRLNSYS
In short: (§1)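 Relaxin-stimulated cells go through overnight storage at −80 °C, two 10-min lysis steps at pH 8.0 with shaking, and chlorophenol red-β-D-galactopyranoside development. Output at 570 nm is scaled against the 5 μM Forskolin maximum.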

RXFP1 K52A = biological target: T2, RXFP1 K52A (Homo sapiens, UniProt Q9HBX9, K74A); conditions: construct K52A, ±s.e.m.
T2 construct: cells expressing full-length RXFP1 and mutants; expressed in transfected cells; host or cells: HEK293T
T2 sequence (Q9HBX9 23-757 K74A limits assumed): T1 sequence (Q9HBX9 23-757 A77S limits assumed) with K52A, S55A
In short: as §1

RXFP1 M60A = biological target: T3, RXFP1 M60A (Homo sapiens, UniProt Q9HBX9, M82A); conditions: construct M60A, ±s.e.m.
T3 construct: cells expressing full-length RXFP1 and mutants; expressed in transfected cells; host or cells: HEK293T
T3 sequence (Q9HBX9 23-757 M82A limits assumed): T1 sequence (Q9HBX9 23-757 A77S limits assumed) with S55A, M60A
In short: as §1

[1] = percentage of maximum response to 5 μM Forskolin

H2 relaxin: two-chain 6-kDa peptide hormone structurally related to insulin; recombinant human gene-2 H2 relaxin provided by Corthera
H2 relaxin pEC50 (RXFP1 A55S; cAMP reporter): 11.39±0.13 (5) | H2 relaxin Emax (RXFP1 A55S; [1]): 154.43±39.77 (5) % | H2 relaxin pEC50 (RXFP1 K52A; cAMP reporter): 11.06±0.11 | H2 relaxin Emax (RXFP1 K52A; [1]): 154.63±33.73 (5) % | H2 relaxin pEC50 (RXFP1 M60A; cAMP reporter): 11.20±0.03 (4) | H2 relaxin Emax (RXFP1 M60A; [1]): 118.2±6.51 (4) %

From PMC4837482, “The complex binding mode of the peptide hormone H2 relaxin to its receptor RXFP1” (Nature Communications, 2016)
